According to PMC4351158 (Structure (London, England : 1993), 2015):
Where a chain is given by its changes, count along the chain named. Where no end group is shown, it is not given here. fluorescein = fluorescein, a fluorescent label on the peptide N-terminus

Columns and labels:
Experiment in all cases: fluorescence polarisation
[1] = target: T1, DegS Q187A (E. coli, UniProt P0AEE3 27-355, Q187A)
T1 sequence (looked up): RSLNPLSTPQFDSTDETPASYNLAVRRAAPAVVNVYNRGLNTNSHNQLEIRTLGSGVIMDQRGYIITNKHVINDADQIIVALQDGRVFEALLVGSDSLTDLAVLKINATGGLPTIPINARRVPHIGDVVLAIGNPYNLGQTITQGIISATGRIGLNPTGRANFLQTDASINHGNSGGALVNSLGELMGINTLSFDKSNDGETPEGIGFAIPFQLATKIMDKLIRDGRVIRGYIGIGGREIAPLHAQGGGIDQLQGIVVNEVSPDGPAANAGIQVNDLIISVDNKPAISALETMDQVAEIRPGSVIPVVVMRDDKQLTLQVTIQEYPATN

[2] = target: T2, DegS F220A (E. coli, UniProt P0AEE3 27-355, F220A)
T2 sequence (looked up): T1 sequence (looked up) with A161Q, F194A

[3] = target: T3, DegS E230A (E. coli, UniProt P0AEE3 27-355, E230A)
T3 sequence (looked up): T1 sequence (looked up) with A161Q, E204A

[4] = target: T4, DegS D221A/H198P (E. coli, UniProt P0AEE3 27-355, D221A | H198P)
T4 sequence (looked up): T1 sequence (looked up) with A161Q, H172P, D195A

[5] = target: T5, DegS H198P/E230A (E. coli, UniProt P0AEE3 27-355, H198P | E230A)
T5 sequence (looked up): T1 sequence (looked up) with A161Q, H172P, E204A

[6] = target: T6, DegS T167V (E. coli, UniProt P0AEE3 27-355, T167V)
T6 sequence (looked up): T1 sequence (looked up) with T141V, A161Q

B1: fluorescent OMP peptide fluorescein-DNRDGNVYYF (peptide)
peptide: fluorescein-DNRDGNVYYF
Kd [1]: 2300 ± 100 nM
Kd [2]: 2100 ± 100 nM
Kd [3]: 5700 ± 1300 nM
Kd [4]: 1700 ± 100 nM
Kd [5]: 1800 ± 400 nM
Kd [6]: 1800 ± 100 nM
